Measured values taken from IntAct's records for PubMed 11781565.

B1: Cell division cycle-related protein res1/sct1 (Schizosaccharomyces pombe (strain ATCC 38366 / 972)), P33520 (parent)
chain: MYNDQIHKITYSGVEVFEYTINGFPLMKRCHDNWLNATQILKIAELDKPRRTRILEKFAQKGLHEKIQGGCGKYQGTWVPSERAVELAHEYNVFDLIQPLIEYSGSAFMPMSTFTPQSNRKPTEAYRRNSPVKKSFSRPSHSLLYPYTSSNNMTSTSRMSGIHDALSLQSDFTRSPDMPSDSFTGSLHDIKASPFSSNNYAQSLLDYFLLPNTTQPPDFVYDRPSDWDVNAGIDEDGHTALHWAAAMGNLEMMHALLQAGANVVAVNYLQQTSLMRCVMFTMNYDLQTFEVVSELLQSAICMNDSFGQTVFHHIALLASSKSKMEAARYYMDILLQNLTATQSVDVAAQIINLQDDHGDTALLICARNGAKKCARLLLSFYASSSIPNNQGQYPTDFLSSKDMSFPENDDSPLNSKIEDNLIDNLKYPQSLDDHLSSKKPISYFSNKLTHQTLPNVFTQLSELSKCHEASLAEKQLTYNLAMEALEQTVRETETCQRLWNERTNNDENYLVNQREDLIHQCKKFLHTLKTARYYLETVQLHQLKKYVTYFSQIWSTDELADISETKNLVGHDTKTNRSSLSSKHEVDLFTAENEAAREKLVEQLCSLQAQRKQKINEILNLLSMGMYNTINTDQSGS
partner: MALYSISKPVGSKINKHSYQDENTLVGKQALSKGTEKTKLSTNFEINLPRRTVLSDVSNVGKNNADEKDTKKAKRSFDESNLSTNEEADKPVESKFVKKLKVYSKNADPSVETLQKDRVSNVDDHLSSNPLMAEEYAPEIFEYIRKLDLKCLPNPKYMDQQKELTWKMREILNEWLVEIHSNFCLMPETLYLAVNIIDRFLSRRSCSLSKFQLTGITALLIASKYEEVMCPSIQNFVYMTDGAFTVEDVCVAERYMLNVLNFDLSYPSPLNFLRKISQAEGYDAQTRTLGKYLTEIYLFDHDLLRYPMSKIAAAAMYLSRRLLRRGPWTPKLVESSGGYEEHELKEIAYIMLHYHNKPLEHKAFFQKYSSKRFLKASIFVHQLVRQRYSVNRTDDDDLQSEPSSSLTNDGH

Variants of: B1
Conditions: with cg22_schpo cig2, P36630

Question: How did the “effect of a mutation on the interaction” value turn out when S130A was run?
Answer: increasing interaction

Variants of: B1
Conditions: with cg22_schpo cig2, P36630
Remark: another data set of the same source

Question: S130A was tested. Which “effect of a mutation on the interaction” value did it give?
Answer: disrupting interaction
